Test results from patent publication US20250250360A1 (CCBIOTECH, published 2025).

Target: T1, sulfatase 1 (SULF1) antigen
T1 construct: also called antigen peptide
T1 peptide: CNPRPKNLDVGNKDGGSYD
Test: indirect ELISA, antigen coated on plate, HRP-labeled secondary antibody, A450 nm
From the text: This embodiment is directed to two antibodies (anti-GALNS specific antibody and anti-SULF1 specific antibody) and analyzes their specificity to the target proteins under different concentrations of antigen. The indirect ELISA detection method was used to conduct antibody specificity analysis, compare the specificity performance of antibodies to different concentrations of antigens, and BSA was used as the background control group for evaluation. The antigen was coated on a 96-well ELISA plate, the test antibody and the HRP-labeled secondary antibody were added for reaction, and the absorbance value was measured using a 450 nm wavelength microplate reader.

binding result: binds
B1: anti-sulfatase 1 (SULF1) specific antibody (antibody, V domains shown)
VH: EVKLQESGAELVKPGASVKMSCKASGYTFTSYWMHWVKQRPGQGLEWIGTIDPSDSYTSYNQKFKGKATLTVDTSSSTAYMQLSSLTSEDSAVYYCTRGEYGNAMDYWGQGTSVTVSS
VL: DIVLTQTPSYLAASPGETITINCRASKSISKYLAWYQEKPGKTNKLLIYSGSTLQSGIPSRFSGSGSGTDFTLTISSLEPEDFAMYYCQQHNEYPYTFGGGTKLEIKR
notes: also called anti-SULF1 specific antibody; anti-Sulf1 specific antibody
